Measurements as given in the Human Domainome abundance scans (Beltran et al. 2025).
± gives the uncertainty stated by the source.

B1: Peroxisome proliferator-activated receptor delta, residues 71 to 145; numbered along this chain, Q03181 (parent)
chain: NMECRVCGDKASGFHYGVHACEGCKGFFRRTIRMKLEYEKCERSCKIQKKNRNKCQYCRFQKCLALGMSHNAIRF

Variants of: B1
Experiment: abundance fitness (aPCA) (normalised: wild type 0, dead -1); higher = more abundant; growth selection in yeast, the domain comes from the species named
Conditions: Homo sapiens

Abundance fitness, by site and new letter:
A20: D -0.99 ± 0.35; T -0.057 ± 0.05; M -0.456 ± 0.13; H -0.594 ± 0.22; I -0.023 ± 0.11; R -0.707 ± 0.11; S -0.168 ± 0.05; G -0.847 ± 0.11; E -0.886 ± 0.16; Q -0.874 ± 0.21; N -0.222 ± 0.17; W -0.534 ± 0.11; L -0.106 ± 0.051; C 0.139 ± 0.06; F 0.145 ± 0.13; V -0.077 ± 0.045; K -0.771 ± 0.24; P -0.792 ± 0.15
H19: P -0.028 ± 0.042; I 0.009 ± 0.073; W -0.001 ± 0.044; Q 0.131 ± 0.047; K -0.047 ± 0.056; R -0.049 ± 0.032; A 0.11 ± 0.037; T 0.041 ± 0.042; E 0.136 ± 0.046; F 0.247 ± 0.095; V -0.083 ± 0.046; D 0.205 ± 0.059; G -0.205 ± 0.041; Y 0.038 ± 0.063; S 0.046 ± 0.037; N 0.063 ± 0.065; C 0.014 ± 0.058; M 0.122 ± 0.047
L36: A -0.135 ± 0.042; C -0.13 ± 0.064; D -0.461 ± 0.14
C21: T -0.83 ± 0.1; S -0.867 ± 0.094; A -0.705 ± 0.099; K -0.597 ± 0.12; W -0.881 ± 0.14; G -0.633 ± 0.067; E -0.847 ± 0.15; L -0.942 ± 0.11; M -0.912 ± 0.26; Q -0.763 ± 0.13; D -0.875 ± 0.37; I -0.608 ± 0.17; R -0.865 ± 0.09; P -1.14 ± 0.26; H -0.714 ± 0.17; Y -0.599 ± 0.15
E22: Y -0.389 ± 0.099; N -0.207 ± 0.09; F -0.343 ± 0.091; C -0.258 ± 0.076; I -0.176 ± 0.087; P -0.294 ± 0.056; Q -0.332 ± 0.079; R -0.293 ± 0.041; G -0.341 ± 0.05; D -0.148 ± 0.074; A -0.256 ± 0.045; S -0.405 ± 0.052; M -0.205 ± 0.062; K -0.297 ± 0.065; L -0.508 ± 0.056; H -0.385 ± 0.099; T -0.282 ± 0.056; V -0.325 ± 0.055; W -0.425 ± 0.095
G17: D -0.15 ± 0.058; A -0.465 ± 0.062; S -0.448 ± 0.056; V -0.647 ± 0.078; I -0.813 ± 0.19; L -0.692 ± 0.074; N -0.238 ± 0.1; K -0.861 ± 0.17; H -0.682 ± 0.17; T -0.567 ± 0.077; R -0.777 ± 0.076; E -0.27 ± 0.061; Q -0.248 ± 0.061; F -0.661 ± 0.16; M -0.158 ± 0.076; W -0.918 ± 0.13; P -0.527 ± 0.067
I32: E -0.531 ± 0.12; Q -0.365 ± 0.093; A -0.221 ± 0.054; R -0.514 ± 0.068; T -0.107 ± 0.054; P -0.869 ± 0.14; N -0.617 ± 0.2; L -0.095 ± 0.043; H -0.405 ± 0.12; F -0.185 ± 0.092; Y -0.133 ± 0.082; G -0.677 ± 0.078; S -0.464 ± 0.067; D -0.5 ± 0.12; C -0.234 ± 0.091; M -0.142 ± 0.061
R30: S -0.088 ± 0.044; M -0.176 ± 0.072; Y -0.056 ± 0.087; G -0.335 ± 0.043; N 0.021 ± 0.1; T -0.07 ± 0.058; V -0.188 ± 0.049; I -0.31 ± 0.1; K -0.07 ± 0.081; H -0.067 ± 0.065; C -0.275 ± 0.08; P -1.05 ± 0.17; E 0.074 ± 0.045; D 0.026 ± 0.065; A -0.359 ± 0.055
Y16: K -0.356 ± 0.086; W -0.27 ± 0.062; H -0.13 ± 0.071; T -0.32 ± 0.059; E -0.023 ± 0.047; G -0.013 ± 0.044; N -0.032 ± 0.069; Q -0.034 ± 0.057; F -0.085 ± 0.082; L -0.269 ± 0.045; V -0.281 ± 0.049; S -0.132 ± 0.041; M -0.171 ± 0.057; R -0.533 ± 0.057
R29: Y -0.089 ± 0.086; W 0.164 ± 0.045; P -0.901 ± 0.13; K 0.026 ± 0.06; I 0.132 ± 0.065; G 0.09 ± 0.03; A 0.191 ± 0.033; C -0.009 ± 0.064; E 0.258 ± 0.043; N 0.085 ± 0.066; F 0.142 ± 0.095; Q 0.168 ± 0.045; L 0.139 ± 0.035; V 0.105 ± 0.039; D 0.131 ± 0.056; T 0.197 ± 0.044
M34: C -0.032 ± 0.058; I -0.817 ± 0.22; W -0.063 ± 0.054; G -0.033 ± 0.039; R -0.161 ± 0.042; A -0.112 ± 0.049; K -0.074 ± 0.06; E 0.118 ± 0.051; D 0.192 ± 0.054; H 0.047 ± 0.075; Q 0.136 ± 0.056; V -0.577 ± 0.082; L 0.006 ± 0.036; S -0.097 ± 0.043; P -0.602 ± 0.12; T -0.36 ± 0.077
F28: D -0.845 ± 0.2; P -0.406 ± 0.077; I -1.23 ± 0.49; T -0.909 ± 0.18; R -0.823 ± 0.091; H -0.936 ± 0.33; N -0.586 ± 0.16; K -0.758 ± 0.17; A -0.603 ± 0.075; S -0.625 ± 0.083; M -0.156 ± 0.081; W -0.203 ± 0.054; Q -0.808 ± 0.14; L -0.842 ± 0.11; C -0.882 ± 0.28; V -0.538 ± 0.067; E -0.667 ± 0.12; Y -0.159 ± 0.12
K35: E 0.063 ± 0.056; Q 0.093 ± 0.048; W -0.535 ± 0.091; A -0.054 ± 0.042; N 0.04 ± 0.062; I -0.655 ± 0.19; S 0.013 ± 0.039; C -0.015 ± 0.053; M -0.079 ± 0.06; H -0.169 ± 0.11; V -0.33 ± 0.059; P -0.509 ± 0.076; D -0.028 ± 0.07; F -0.339 ± 0.1; T -0.272 ± 0.055; R -0.026 ± 0.036; Y -0.456 ± 0.12; L -0.495 ± 0.061
C24: Q -0.912 ± 0.2; M -0.648 ± 0.14; F -0.364 ± 0.17; K -0.6 ± 0.14; T -0.723 ± 0.11; E -0.924 ± 0.18; I -0.464 ± 0.13; V -1.06 ± 0.17; L -0.753 ± 0.1; R -0.823 ± 0.091; S -0.809 ± 0.098; D -0.306 ± 0.11; Y -0.747 ± 0.22; H -0.15 ± 0.16; N -0.648 ± 0.3; A -0.626 ± 0.13
R33: W -0.108 ± 0.061; Y -0.019 ± 0.13; S 0.168 ± 0.043; E 0.18 ± 0.053; N 0.082 ± 0.1; D 0.177 ± 0.069; L 0.089 ± 0.044; Q 0.058 ± 0.061; T 0.129 ± 0.055; V 0.072 ± 0.043; P -0.972 ± 0.23; C 0.11 ± 0.062; G -0.038 ± 0.039; M 0.088 ± 0.066; F 0.208 ± 0.1; H -0.091 ± 0.098
G23: F -0.001 ± 0.084; K -0.034 ± 0.062; H 0.26 ± 0.088; I -0.244 ± 0.098; R -0.179 ± 0.036; S 0.146 ± 0.034; L -0.061 ± 0.04; D 0.192 ± 0.054; E 0.17 ± 0.04; T -0.203 ± 0.055; N 0.109 ± 0.078; C 0.071 ± 0.053; M 0.009 ± 0.056; Q -0.009 ± 0.049; Y 0.021 ± 0.072; W 0.084 ± 0.045; V -0.325 ± 0.052
K25: W 0.01 ± 0.043; Q -0.036 ± 0.049; S 0.105 ± 0.038; A 0.122 ± 0.036; P -0.878 ± 0.13; F -0.108 ± 0.081; C -0.014 ± 0.057; T 0.094 ± 0.041; I 0.061 ± 0.063; E 0.142 ± 0.04; V 0.109 ± 0.037; R -0.003 ± 0.033; Y 0.114 ± 0.065; G 0.178 ± 0.031; L 0.112 ± 0.033; D -0.048 ± 0.056; M 0.188 ± 0.042; H -0.19 ± 0.089
V18: Q -0.39 ± 0.082; I -0.051 ± 0.074; A -0.104 ± 0.044; Y -0.652 ± 0.14; S -0.505 ± 0.066; N -0.372 ± 0.14; F -0.527 ± 0.16; L -0.258 ± 0.044; P -0.492 ± 0.075; W -0.721 ± 0.11; R -0.671 ± 0.067; D -0.396 ± 0.082; H -0.764 ± 0.27; C -0.145 ± 0.066; E -0.398 ± 0.063
F27: A -0.934 ± 0.12; C -0.719 ± 0.16; G -0.789 ± 0.076; Y -1.06 ± 0.31; Q -0.958 ± 0.21; L -0.784 ± 0.098; W -0.787 ± 0.094; V -0.951 ± 0.11; R -0.684 ± 0.065; P -0.876 ± 0.14; I -0.994 ± 0.23; K -0.772 ± 0.17; E -0.85 ± 0.13; M -1.02 ± 0.27; D -0.41 ± 0.11
G26: Y 0.084 ± 0.06; C -0.139 ± 0.058; P -1.02 ± 0.18; F -0.125 ± 0.083; T 0.039 ± 0.047; R -0.099 ± 0.036; H 0.221 ± 0.066; D 0.114 ± 0.056; I 0.025 ± 0.099; A 0.068 ± 0.04; V -0.004 ± 0.039; M -0.09 ± 0.061; E 0.127 ± 0.046; N 0.055 ± 0.067; W -0.174 ± 0.048
T31: N -0.967 ± 0.28; P -1.16 ± 0.2; M -0.521 ± 0.13; K -0.917 ± 0.22; G -0.717 ± 0.085; S -0.043 ± 0.041; R -0.778 ± 0.072; Q -0.792 ± 0.15; Y -0.46 ± 0.17; C -0.726 ± 0.14; W -0.588 ± 0.089; I -0.49 ± 0.22; F -0.406 ± 0.15; A -0.288 ± 0.051; D -0.663 ± 0.16; V -0.394 ± 0.063; E -0.89 ± 0.17; L -0.985 ± 0.14
